Experimental data taken from the supplement of paper PMC5998384.

How the values were obtained:
HeLa Kyoto [1] = assay: solubility in G1/S (NP-40 vs SDS abundance) (log2 ratio); higher = more soluble; details: cell cycle stage: G1/S
HeLa Kyoto [2] = assay: melting temperature (median over replicates), in situ; higher = more thermally stable
HeLa Kyoto [3] = assay: solubility change mitosis vs G1/S (difference of NP-40 vs SDS log2 ratios) (log2 ratio difference); higher = more soluble in mitosis
HeLa Kyoto [4] = assay: thermal stability score vs G1/S (z-score of summed log2 fold changes over temperatures); higher = more thermally stable than in G1/S
[5] = cell cycle stage: early G1 (4.5 h after nocodazole release)
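For melting temperature (median over replicates), in situ in this document: HeLa Kyoto cells synchronized by double thymidine or nocodazole block, proteins quantified by TMT10plex mass spectrometry, three independent biological replicates.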
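For solubility change mitosis vs G1/S (difference of NP-40 vs SDS log2 ratios) in this document: synchronized HeLa Kyoto cells (double thymidine block for G1/S, nocodazole release for mitosis), protein amounts in NP-40 versus SDS lysates quantified by mass spectrometry, three biological replicates.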
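For solubility in G1/S (NP-40 vs SDS abundance) in this document: HeLa Kyoto cells arrested at G1/S by double thymidine block, proteins quantified by TMT10plex mass spectrometry in mild NP-40 versus SDS extracts, three biological replicates.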
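For thermal stability score vs G1/S (z-score of summed log2 fold changes over temperatures) in this document: synchronized HeLa Kyoto cells, proteins quantified by TMT10plex mass spectrometry, three biological replicates, mitosis taken 0.5 h after nocodazole release, G1/S directly after double thymidine block.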

Sequence	solubility in G1/S (log2) (HeLa Kyoto [1])	melting temperature (HeLa Kyoto [2]; cell cycle stage: G1/S) [°C]	melting temperature (HeLa Kyoto [2]; cell cycle stage: mitosis) [°C]	solubility change mitosis (log2) (HeLa Kyoto [3])	thermal stability score (HeLa Kyoto [4]; [5])	thermal stability score (HeLa Kyoto [4]; cell cycle stage: mitosis)
MAEAGDAALSVAEWLRALHLEQYTGLFEQHGLVWATECQGLSDTRLMDMGMLLPGHRRRILAGLLRAHTSPAPAPRPTPRPVPMKRHIFRSPPVPATPPEPLPTTTEDEGLPAAPPIPPRRSCLPPTCFTTPSTAAPDPVLPPLPAKRHLAELSVPPVPPRTGPPRLLVSLPTKEEESLLPSLSSPPQPQSEEPLSTLPQGPPQPPSPPPCPPEIPPKPVRLFPEFDDSDYDEVPEEGPGAPARVMTKKEEPPPSRVPRAVRVASLLSEGEELSGDDQGDEEEDDHAYEGVPNGGWHTSSLSLSLPSTIAAPHPMDGPPGGSTPVTPVIKAGWLDKNPPQGSYIYQKRWVRLDTDHLRYFDSNKDAYSKRFISVACISHVAAIGDQKFEVITNNRTFAFRAESDVERKEWMQALQQAMAEQRARARLSSAYLLGVPGSEQPDRAGSLELRGFKNKLYVAVVGDKVQLYKNLEEYHLGIGITFIDMSVGNVKEVDRRSFDLTTPYRIFSFSADSELEKEQWLEAMQGAIAEALSTSEVAERIWAAAPNRFCADCGAPQPDWASINLCVVICKRCAGEHRGLGAGVSKVRSLKMDRKVWTETLIELFLQLGNGAGNRFWAANVPPSEALQPSSSPSTRRCHLEAKYREGKYRRYHPLFGNQEELDKALCAAVTTTDLAETQALLGCGAGINCFSGDPEAPTPLALAEQAGQTLQMEFLRNNRTTEVPRLDSMKPLEKHYSVVLPTVSHSGFLYKTASAGKLLQDRRAREEFSRRWCVLGDGVLSYFENERAVTPNGEIRASEIVCLAVPPPDTHGFEHTFEVYTEGERLYLFGLESAEQAHEWVKCIAKAFVPPLAEDLLARDFERLGRLPYKAGLSLQRAQEGWFSLSGSELRAVFPEGPCEEPLQLRKLQELSIQGDSENQVLVLVERRRTLYIQGERRLDFMGWLGAIQKAAASMGDTLSEQQLGDSDIPVIVYRCVDYITQCGLTSEGIYRKCGQTSKTQRLLESLRQDARSVHLKEGEQHVDDVSSALKRFLRDLPDGLFTRAQRLTWLEASEIEDEEEKVSRYRELLVRLPPVNRATVKALISHLYCVQCFSDTNQMNVHNLAIVFGPTLFQTDGQDYKAGRVVEDLINHYVVVFSVDEEELRKQREEITAIVKMRVAGTASGTQHAGDFICTVYLEEKKAETEQHIKVPASMTAEELTLEILDRRNVGIREKDYWTCFEVNEREEAERPLHFAEKVLPILHGLGTDSHLVVKKHQAMEAMLLYLASRVGDTKHGMMKFREDRSLLGLGLPSGGFHDRYFILNSSCLRLYKEVRSQRPWSGAPETSHRPEKEWPIKSLKVYLGVKKKLRPPTCWGFTVVHETEKHEKQQWYLCCDTQMELREWFATFLFVQHDGLVWPSEPSRVSRAVPEVRLGSVSLIPLRGSENEMRRSVAAFTADPLSLLRNV [ARAP1]	-0.0593	48.7	49.1	-0.0622	0.748	0.922
MAEAVFHAPKRKRRVYETYESPLPIPFGQDHGPLKEFKIFRAEMINNNVIVRNAEDIEQLYGKGYFGKGILSRSRPSFTISDPKLVAKWKDMKTNMPIITSKRYQHSVEWAAELMRRQGQDESTVRRILKDYTKPLEHPPVKRNEEAQVHDKLNSGMVSNMEGTAGGERPSVVNGDSGKSGGVGDPREPLGCLQEGSGCHPTTESFEKSVREDASPLPHVCCCKQDALILQRGLHHEDGSQHIGLLHPGDRGPDHEYVLVEEAECAMSEREAAPNEELVQRNRLICRRNPYRIFEYLQLSLEEAFFLVYALGCLSIYYEKEPLTIVKLWKAFTVVQPTFRTTYMAYHYFRSKGWVPKVGLKYGTDLLLYRKGPPFYHASYSVIIELVDDHFEGSLRRPLSWKSLAALSRVSVNVSKELMLCYLIKPSTMTDKEMESPECMKRIKVQEVILSRWVSSRERSDQDDL [TSEN2]	0.0298	49.7	49.9	-0.177	0.825	0.75
MAECGASGSGSSGDSLDKSITLPPDEIFRNLENAKRFAIDIGGSLTKLAYYSTVQHKVAKVRSFDHSGKDTEREHEPPYEISVQEEITARLHFIKFENTYIEACLDFIKDHLVNTETKVIQATGGGAYKFKDLIEEKLRLKVDKEDVMTCLIKGCNFVLKNIPHEAFVYQKDSDPEFRFQTNHPHIFPYLLVNIGSGVSIVKVETEDRFEWVGGSSIGGGTFWGLGALLTKTKKFDELLHLASRGQHSNVDMLVRDVYGGAHQTLGLSGNLIASSFGKSATADQEFSKEDMAKSLLHMISNDIGQLACLHARLHSLDRVYFGGFFIRGHPVTMRTITYSINFFSKGEVQALFLRHEGYLGAIGAFLKGAEQDNPNQYSWGENYAGSSGLMSASPELGPAQRARSGTFDLLEMDRLERPLVDLPLLLDPPSYVPDTVDLTDDALARKYWLTCFEEALDGVVKRAVASQPDSVDAAERAEKFRQKYWNKLQTLRQQPFAYGTLTVRSLLDTREHCLNEFNFPDPYSKVKQRENGVALRCFPGVVRSLDALGWEERQLALVKGLLAGNVFDWGAKAVSAVLESDPYFGFEEAKRKLQERPWLVDSYSEWLQRLKGPPHKCALIFADNSGIDIILGVFPFVRELLLRGTEVILACNSGPALNDVTHSESLIVAERIAGMDPVVHSALQEERLLLVQTGSSSPCLDLSRLDKGLAALVRERGADLVVIEGMGRAVHTNYHAALRCESLKLAVIKNAWLAERLGGRLFSVIFKYEVPAE [PANK4]	-0.125	52	51.7	-0.0425	0.0566	-0.284
